Source: publication PMC5626764

Molecular target: SHG-labeled wildtype NiV G ectodomain (Nipah virus) (UniProt Q9IH62)
Assay: second harmonic generation (SHG)

**Q.** For “ephrinB2-229 (10881-HCCH, SinoBiological Inc.) (domain or fragment)”, which ΔSHG is on record?
**A.** -15.9%
